From article PMC10644352, “Bromodomain Factor 5 as a Target for Antileishmanial Drug Discovery” (ACS Infectious Diseases, 2023)
No end group written: not given here.

Key:
[1] = target: T1, Leishmania donovani bromodomain factor 5 (LdBDF5) first bromodomain, recombinant BD5.1 (Leishmania donovani); assay: fluorescence polarisation; 800 nM 5-FAM peptide, protein 0-300 μM; 20 mM HEPES, 500 mM NaCl, 1 mg/mL BSA, pH 7.5; 30 min at room temperature; one-site-specific binding fit (two-site for BD5T); n = 3; conditions: both partners purified
T1 construct: L. donovani BDF5 (LDBPK_091320), construct with the first bromodomain; Plasmid from the Structural Genomics Consortium, pET-15-MHL backbone (Addgene plasmid #26092), which encodes a cleavable His-tag; His-tags were not cleaved for BD5.1; Expected mass 15.2 kDa; Monomer by SEC-MALLS; also called LdBDF5 BD5.1; LdBDF5.1; source: E. coli Rosetta2 (DE3) pLysS, purified (IMAC, SEC)

[2] = target: T2, Leishmania donovani bromodomain factor 5 (LdBDF5) second bromodomain, recombinant BD5.2 (Leishmania donovani); assay: as above; conditions: both partners purified
T2 construct: L. donovani BDF5 (LDBPK_091320), construct with the second bromodomain; His-tags were not cleaved for BD5.2; Expected mass 17.9 kDa; Monomer by SEC-MALLS; also called LdBDF5 BD5.2; source: E. coli Rosetta2 (DE3) pLysS, purified (IMAC, SEC)

B1: 5-FAM-labeled H4(1-15)K2Ac K4Ac K10Ac K14Ac peptide of L. donovani histone H4 (peptide)
chain: AK(Ac)GK(Ac)RSADAK(Ac)SSQK(Ac)R
modifications: also: 5-FAM at N-terminus or via ethylene diamine linker at C-terminus
Which results are given for B1?
Kd [1]: 137 µM; Kd [2]: 353 µM
